{"source": "paper PMC7241556", "data": [{"tested_on": "T1, Rsp (Staphylococcus aureus NCTC8325), ORF:0cc986df", "T1 sequence": "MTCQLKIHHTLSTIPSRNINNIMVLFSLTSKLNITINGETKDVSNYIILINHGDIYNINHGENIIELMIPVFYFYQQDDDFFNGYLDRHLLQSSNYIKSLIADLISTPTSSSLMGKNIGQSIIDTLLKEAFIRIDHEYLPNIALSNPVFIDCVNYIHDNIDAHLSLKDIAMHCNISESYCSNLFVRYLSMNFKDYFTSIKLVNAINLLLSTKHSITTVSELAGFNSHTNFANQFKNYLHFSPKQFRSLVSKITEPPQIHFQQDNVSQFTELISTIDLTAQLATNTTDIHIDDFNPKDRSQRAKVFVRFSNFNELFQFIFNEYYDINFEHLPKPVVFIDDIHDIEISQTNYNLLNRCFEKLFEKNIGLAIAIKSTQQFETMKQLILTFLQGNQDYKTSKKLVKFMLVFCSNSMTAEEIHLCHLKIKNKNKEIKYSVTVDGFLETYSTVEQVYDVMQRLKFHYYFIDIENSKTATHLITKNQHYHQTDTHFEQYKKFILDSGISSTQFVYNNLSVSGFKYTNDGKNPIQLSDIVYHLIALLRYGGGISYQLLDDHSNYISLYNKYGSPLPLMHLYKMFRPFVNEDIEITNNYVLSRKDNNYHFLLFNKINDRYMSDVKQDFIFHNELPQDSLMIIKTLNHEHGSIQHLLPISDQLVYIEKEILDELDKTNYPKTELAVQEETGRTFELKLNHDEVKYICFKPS", "assay": "EMSA", "values": [{"sequence": "TAGTGTTGTTGTTACTGAGCTGACTATACGTGTTTTCATTTTCATCATCCTTCTATTTTTTAAAACGATTTGAGGAAACAATAATCAATATGTCAATTTAGAATATTGCA (double strand) [hla promoter 110 bp]", "binding": "no binding"}, {"sequence": "TGATTTTAAAAATTTCCATGTTTTACATTTAAATGATAGATTTCAATATATATTAGGCAGGAGAGAGAAATATGACATGCCAACTTAAA (double strand) [rsp promoter 89 bp]", "binding": "no binding"}, {"sequence": "ACTTAAATACGAATTCAGGCAACTTAATTGTGTTAAATACAGTTTTGAATGCCTAACTGTATTTCTTTTCTCTTTAAAATACAGTTAAGTACATTATAAGATGTTGTGCGGATAAACAAACTAATTGCATCAAATTTATTTTAAAATAACAACAACAAAACGTTAAGCGAATAACATTTCGGTGATTTAAAAGCTACGCACGTTTTTGTTATCTTCAAATTTAAATTTTAAGGAGTGTTTTCAATGGAAGGTT (double strand) [psmβ promoter 253 bp]", "binding": "binds"}, {"sequence": "GCCAGCGATGATACCCATTAAGATTACCTCCTTTGCTTATGAGTTAACTTCATTGTACATAGTTATCTTGTGCGTAATTGATTTT (double strand) [psmα promoter 85 bp]", "binding": "no binding"}, {"sequence": "AACCTTCCATTGAAAACACTCCTTAAAATTTAAATTTGAAGATAACAAAAACGTGCGTAGCTTTTAAATCACCGAAATGTTATTCGCTT (double strand) [psmβ promoter 89 bp]", "binding": "no binding"}]}]}
